B1: Scaffold protein ILK (Homo sapiens), Q13418 (parent)
chain: MDDIFTQCREGNAVAVRLWLDNTENDLNQGDDHGFSPLHWACREGRSAVVEMLIMRGARINVMNRGDDTPLHLAASHGHRDIVQKLLQYKADINAVNEHGNVPLHYACFWGQDQVAEDLVANGALVSICNKYGEMPVDKAKAPLRELLRERAEKMGQNLNRIPYKDTFWKGTTRTRPRNGTLNKHSGIDFKQLNFLTKLNENHSGELWKGRWQGNDIVVKVLKVRDWSTRKSRDFNEECPRLRIFSHPNVLPVLGACQSPPAPHPTLITHWMPYGSLYNVLHEGTNFVVDQSQAVKFALDMARGMAFLHTLEPLIPRHALNSRSVMIDEDMTARISMADVKFSFQCPGRMYAPAWVAPEALQKKPEDTNRRSADMWSFAVLLWELVTREVPFADLSNMEIGMKVALEGLRPTIPPGISPHVCKLMKICMNEDPAKRPKFDMIVPILEKMQDK
partner: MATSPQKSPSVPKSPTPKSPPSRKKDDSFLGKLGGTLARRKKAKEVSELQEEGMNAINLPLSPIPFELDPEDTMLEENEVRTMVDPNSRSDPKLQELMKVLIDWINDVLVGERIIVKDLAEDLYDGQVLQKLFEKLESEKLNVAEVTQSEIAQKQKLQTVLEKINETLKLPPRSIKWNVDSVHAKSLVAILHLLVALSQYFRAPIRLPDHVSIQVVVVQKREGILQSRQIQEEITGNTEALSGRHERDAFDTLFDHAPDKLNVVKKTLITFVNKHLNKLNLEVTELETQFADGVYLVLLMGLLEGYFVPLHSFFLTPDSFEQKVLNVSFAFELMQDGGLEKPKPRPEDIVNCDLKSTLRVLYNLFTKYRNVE

Variants of: B1
Conditions: with parva_human PARVA

Q: Which “effect of a mutation on the interaction” value does the source give for MDDIFTQCREGNAVAVRLWLDNTENDLNQGDDHGFSPLHWACREGRSAVVEMLIMRGARINVMNRGDDTPLHLAASHGHRDIVQKLLQYKADINAVNEHGNVPLHYACFWGQDQVAEDLVANGALVSICNKYGEMPVDKAKAPLRELLRERAEKMGQNLNRIPYKDTFWKGTTRTRPRNGTLNKHSGIDFKQLNFLTKLNENHSGELWKGRWQGNDIVVKVLKVRDWSTRKSRDFNEECPRLRIFSHPNVLPVLGACQSPPAPHPTLITHWMPYGSLYNVLHEGTNFVVDQSQAVKFALDMARGMAFLHTLEPLIPRHALNSRSVMIDEDMTARISMADVKFSFQCPGRMYAPAWVAPEALQKKPEDTNRRSADMWSFAVLLWELVTREVPFADLSNMEIGAAVALEGLRPTIPPGISPHVCKLMKICMNEDPAKRPKFDMIVPILEKMQDK [M402A;K403A] here?
A: Its value is “disrupting interaction”.
